In paper PMC10054981 (bioRxiv, 2023) one finds Kd data, which are given here for seven molecules.

B1: Speckle-type POZ protein (SPOP) wild type, residues 28-359 (domain or fragment)
chain: KVVKFSYMWTINNFSFCREEMGEVIKSSTFSSGANDKLKWCLRVNPKGLDEESKDYLSLYLLLVSCPKSEVRAKFKFSILNAKGEETKAMESQRAYRFVQGKDWGFKKFIRRDFLLDEANGLLPDDKLTLFCEVSVVQDSVNISGQNTMNMVKVPECRLADELGGLWENSRFTDCCLCVAGQEFQAHKAILAARSPVFSAMFEHEMEESKKNRVEINDVEPEVFKEMMCFIYTGKAPNLDKMADDLLAAADKYALERLKVMCEDALCSNLSVENAAEILILADLHSADQLKTQAVDFINYHASDVLETSGWKSMVVSHPHLVAEAYRSLASA
B3: SPOP R354H, residues 28-359 (domain or fragment)
chain: KVVKFSYMWTINNFSFCREEMGEVIKSSTFSSGANDKLKWCLRVNPKGLDEESKDYLSLYLLLVSCPKSEVRAKFKFSILNAKGEETKAMESQRAYRFVQGKDWGFKKFIRRDFLLDEANGLLPDDKLTLFCEVSVVQDSVNISGQNTMNMVKVPECRLADELGGLWENSRFTDCCLCVAGQEFQAHKAILAARSPVFSAMFEHEMEESKKNRVEINDVEPEVFKEMMCFIYTGKAPNLDKMADDLLAAADKYALERLKVMCEDALCSNLSVENAAEILILADLHSADQLKTQAVDFINYHASDVLETSGWKSMVVSHPHLVAEAYHSLASA

Data set [1] addresses fluorescently labeled peptide derived from a SPOP-binding motif from the substrate Puckered. As to the kind of experiment: fluorescence polarisation. (In general: Fluorescence polarisation rises when a labelled molecule tumbles more slowly, as on binding a larger partner.)
The data set “CG-MALS” concerns the molecule itself. As to the kind of experiment: CG-MALS.
The target of data set [2] is SPOP R221C, residues 28-359 (human, UniProt O43791 28-359, R221C). Nature of the data set: fluorescence polarisation.
The target in data set [3] is B3. As to the kind of experiment: fluorescence polarisation.
Data set [4] addresses B1. Nature of the data set: fluorescence polarisation.

As usually defined, the Kd is the equilibrium constant for the complex coming apart. In data set [1], “SPOP R221C, residues 28-359 (from UniProt O43791 28-359) (domain or fragment)” gave a Kd of 5.9 µM.
The same measure, in the same setting: with “Speckle-type POZ protein (SPOP) wild type, residues 28-359 (from UniProt O43791 28-359) (domain or fragment)” the figure was 9.8 µM; with “SPOP mutBACK (Y353E), residues 28-359 (from UniProt O43791 28-359) (domain or fragment)”, 4.3 µM; with “SPOP R354H, residues 28-359 (from UniProt O43791 28-359) (domain or fragment)”, 5.1 µM.
Molecule B1 registered a Kd in “CG-MALS” of 2.7 µM.

B2: C-terminal intrinsically disordered region (IDR) of DAXX (cDAXX), fluorescently labeled (domain or fragment)
chain: SPMSSLQISNEKNLEPGKQISRSSGEQQNKGRIVSPSLLSEEPLAPSSIDAESNGEQPEELTLEEESPVSQLFELEIEALPLDTPSSVETDISSSRKQSEEPFTTVLENGAGMVSSTSFNGGVSPHNWGDSGPPCKKSRKEKKQTGSGPLGNSYVERQRSVHEKNGKKICTLPSPPSPLASLAPVADSSTRVDSPSHGLVTSSLCIPSPARLSQTPHSQPPRPGTCKTSVATQCDPEEIIVLSDSD
Turning to B2, the Kd in data set [2] was determined as 3.2 µM; in data set [3], 3000 nM; in data set [4], 1200 nM.
In “CG-MALS”, B3 yielded a Kd of 26.9 µM. This counts as double-digit micromolar.
